The results in this text go back to the supplement of paper PMC9112550, “Optimization of the antimicrobial peptide Bac7 by deep mutational scanning” (BMC Biology, 2022).

The test system of this data set is Escherichia coli TOP10. Put plainly: shrunken log2 fold change of peptide-encoding DNA abundance (4.5 h post-induction vs induction); higher = less antimicrobial activity (less host growth inhibition). As to conditions: time post-induction: 4.5 h; library: site-saturation at positions 5, 18, 19, 20.
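Further: peptides expressed intracellularly from a pBAD plasmid library in pooled LB shake-flask culture, induced with 0.3% L-arabinose, DNA abundance read by NGS, three biological replicates, DESeq2 with apeglm shrinkage.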

Consider RRIRCRPPRLPRPRPRPTTKPRP, for which the “shrunken log2 fold change” value was -0.0602.
On to RRIRRRPPRLPRPRPRPITDPRP, for which the “shrunken log2 fold change” value is -0.101.
The figure for RRIRFRPPRLPRPRPRPILNPRP is -0.692.
RRIRYRPPRLPRPRPRPIPEPRP: the “shrunken log2 fold change” value was 0.0704.
As for RRIRERPPRLPRPRPRPQFIPRP, the figure is -0.014; as for RRIRRRPPRLPRPRPRPFTDPRP, -0.0197; as for RRIRDRPPRLPRPRPRPAWMPRP, -0.0284.
As for RRIRIRPPRLPRPRPRPTEAPRP, the figure is -0.153; as for RRIRIRPPRLPRPRPRPAGHPRP, -0.159.
Turning to RRIRHRPPRLPRPRPRPFVLPRP, the “shrunken log2 fold change” value was -0.0634.
For the sequence RRIRQRPPRLPRPRPRPINQPRP, the “shrunken log2 fold change” value is -0.314.
Turning to RRIRPRPPRLPRPRPRPCPNPRP, the “shrunken log2 fold change” value was -0.0908.
As for RRIRFRPPRLPRPRPRPGRRPRP, the “shrunken log2 fold change” value came to 0.334.
Take RRIRNRPPRLPRPRPRPHPRPRP: the “shrunken log2 fold change” value was 0.0824.
As to RRIRNRPPRLPRPRPRPYVWPRP, the “shrunken log2 fold change” value is -0.135.
In the case of RRIRIRPPRLPRPRPRPFRQPRP, the “shrunken log2 fold change” value came out at 0.0326.
The figure for RRIRARPPRLPRPRPRPQPHPRP is 0.347.
Consider RRIRQRPPRLPRPRPRPVPLPRP, for which the “shrunken log2 fold change” value was 0.0148.
The figure for RRIRERPPRLPRPRPRPYTVPRP is -0.74.
RRIRSRPPRLPRPRPRPEACPRP: the “shrunken log2 fold change” value was determined as 1.03.
As to RRIRLRPPRLPRPRPRPSTWPRP, the “shrunken log2 fold change” value was -0.53.
Take RRIRGRPPRLPRPRPRPTNWPRP: the “shrunken log2 fold change” value stood at 0.485.
The figure for RRIRHRPPRLPRPRPRPVYCPRP is -0.49.
For the sequence RRIRQRPPRLPRPRPRPMTPPRP, the “shrunken log2 fold change” value stood at 0.126.
As to RRIRMRPPRLPRPRPRPEPFPRP, the “shrunken log2 fold change” value worked out at 0.427.
As for RRIRMRPPRLPRPRPRPHCKPRP, the figure is 0.00214.
Regarding RRIRKRPPRLPRPRPRPEYPPRP, the “shrunken log2 fold change” value came to 0.0134.
The figure for RRIRCRPPRLPRPRPRPDRHPRP is 0.0552; for RRIRNRPPRLPRPRPRPCQLPRP it is -0.0247.
Consider RRIRTRPPRLPRPRPRPRYFPRP, for which the “shrunken log2 fold change” value is -0.429.
On to RRIRKRPPRLPRPRPRPPNNPRP, for which the “shrunken log2 fold change” value came out at 0.364.
The figure for RRIRRRPPRLPRPRPRPQDWPRP is 0.171; for RRIRGRPPRLPRPRPRPIGKPRP it is 0.035.
As to RRIRDRPPRLPRPRPRPNMAPRP, the “shrunken log2 fold change” value was -0.144.
Turning to RRIRYRPPRLPRPRPRPAEHPRP, the “shrunken log2 fold change” value was -0.0954.
As for RRIRNRPPRLPRPRPRPGSWPRP, the “shrunken log2 fold change” value is 0.257.
For RRIRIRPPRLPRPRPRPWSRPRP, the “shrunken log2 fold change” value was -0.187.
RRIRGRPPRLPRPRPRPMRLPRP: the “shrunken log2 fold change” value worked out at 1.05.
On to RRIRDRPPRLPRPRPRPCDWPRP, for which the “shrunken log2 fold change” value is 0.0416.
In the case of RRIRSRPPRLPRPRPRPAYAPRP, the “shrunken log2 fold change” value is 0.0867.
The figure for RRIRNRPPRLPRPRPRPQGEPRP is -0.422; for RRIRHRPPRLPRPRPRPFLWPRP it is -0.353; for RRIRYRPPRLPRPRPRPMIRPRP it is -0.0021.
For the sequence RRIRHRPPRLPRPRPRPETGPRP, the “shrunken log2 fold change” value is -0.0213.
As for RRIRCRPPRLPRPRPRPRKGPRP, the “shrunken log2 fold change” value amounted to 0.201.
As for RRIRKRPPRLPRPRPRPHNMPRP, the “shrunken log2 fold change” value is -0.438.
The figure for RRIRGRPPRLPRPRPRPAREPRP is 0.38; for RRIRKRPPRLPRPRPRPPNAPRP it is 0.711; for RRIRERPPRLPRPRPRPYIPPRP it is -0.416.
As for RRIRKRPPRLPRPRPRPDSNPRP, the “shrunken log2 fold change” value worked out at 0.0348.
On to RRIRTRPPRLPRPRPRPICYPRP, for which the “shrunken log2 fold change” value was -0.387.
Consider RRIRSRPPRLPRPRPRPFETPRP, for which the “shrunken log2 fold change” value was -0.101.
With RRIRVRPPRLPRPRPRPHQAPRP, the “shrunken log2 fold change” value came out at 0.0697.
As to RRIRARPPRLPRPRPRPLQAPRP, the “shrunken log2 fold change” value was 0.674.
As for RRIRERPPRLPRPRPRPWNFPRP, the “shrunken log2 fold change” value is -0.0838.
As to RRIRVRPPRLPRPRPRPAMLPRP, the “shrunken log2 fold change” value stood at 0.0111.
Regarding RRIRIRPPRLPRPRPRPDETPRP, the “shrunken log2 fold change” value is -0.183.
The figure for RRIRFRPPRLPRPRPRPNWVPRP is -0.126.
Regarding RRIRLRPPRLPRPRPRPKTFPRP, the “shrunken log2 fold change” value is -0.201.
For RRIRDRPPRLPRPRPRPMYHPRP, the “shrunken log2 fold change” value was 0.0212.
The figure for RRIRRRPPRLPRPRPRPDPKPRP is 0.304; for RRIRQRPPRLPRPRPRPTNGPRP it is -0.0973; for RRIRERPPRLPRPRPRPVWLPRP it is -0.0259.
As for RRIRHRPPRLPRPRPRPAGMPRP, the figure is -0.411.
As for RRIRVRPPRLPRPRPRPEPGPRP, the figure is 0.547; as for RRIRFRPPRLPRPRPRPPETPRP, 0.261.
As to RRIRCRPPRLPRPRPRPIMRPRP, the “shrunken log2 fold change” value was 0.415.
In the case of RRIRWRPPRLPRPRPRPTYHPRP, the “shrunken log2 fold change” value was -0.0794.
Turning to RRIRLRPPRLPRPRPRPESWPRP, the “shrunken log2 fold change” value came out at 0.162.
For RRIRCRPPRLPRPRPRPMVDPRP, the “shrunken log2 fold change” value amounted to 0.02.
As for RRIRIRPPRLPRPRPRPTWSPRP, the figure is 0.047; as for RRIRMRPPRLPRPRPRPDEYPRP, 1.62.
Turning to RRIRRRPPRLPRPRPRPSYMPRP, the “shrunken log2 fold change” value is -0.257.
In the case of RRIRSRPPRLPRPRPRPDIMPRP, the “shrunken log2 fold change” value is -0.661.
RRIRSRPPRLPRPRPRPWNCPRP: the “shrunken log2 fold change” value was -0.223.
For RRIRMRPPRLPRPRPRPEKGPRP, the “shrunken log2 fold change” value is -0.0013.
On to RRIRWRPPRLPRPRPRPIQIPRP, for which the “shrunken log2 fold change” value is -0.378.
RRIRTRPPRLPRPRPRPWMTPRP: the “shrunken log2 fold change” value is -0.0339.
Take RRIRARPPRLPRPRPRPWHGPRP: the “shrunken log2 fold change” value was determined as 0.0697.
Consider RRIRSRPPRLPRPRPRPSYYPRP, for which the “shrunken log2 fold change” value is -0.529.
As for RRIRQRPPRLPRPRPRPMEDPRP, the figure is -0.00192.
As for RRIRHRPPRLPRPRPRPLGRPRP, the “shrunken log2 fold change” value is 0.218.
The figure for RRIRARPPRLPRPRPRPSYVPRP is -0.232.
As for RRIRQRPPRLPRPRPRPEFGPRP, the “shrunken log2 fold change” value was -0.0374.
As to RRIRSRPPRLPRPRPRPQLHPRP, the “shrunken log2 fold change” value is -0.175.
For RRIRSRPPRLPRPRPRPDWVPRP, the “shrunken log2 fold change” value is 0.305.
In the case of RRIRARPPRLPRPRPRPGQHPRP, the “shrunken log2 fold change” value was -0.0452.
Turning to RRIRKRPPRLPRPRPRPARGPRP, the “shrunken log2 fold change” value amounted to 0.766.
With RRIRMRPPRLPRPRPRPDDQPRP, the “shrunken log2 fold change” value was -0.0167.
For the sequence RRIRYRPPRLPRPRPRPFLDPRP, the “shrunken log2 fold change” value is -0.00748.
Regarding RRIRKRPPRLPRPRPRPHTPPRP, the “shrunken log2 fold change” value stood at 0.0819.
As for RRIRWRPPRLPRPRPRPQMWPRP, the “shrunken log2 fold change” value was 0.369.
Consider RRIRCRPPRLPRPRPRPETVPRP, for which the “shrunken log2 fold change” value is 0.448.
Regarding RRIRKRPPRLPRPRPRPIWEPRP, the “shrunken log2 fold change” value turned out to be 0.295.
Consider RRIRNRPPRLPRPRPRPNTAPRP, for which the “shrunken log2 fold change” value is 0.0213.
With RRIRLRPPRLPRPRPRPEKGPRP, the “shrunken log2 fold change” value came to 0.693.
As for RRIRIRPPRLPRPRPRPHNWPRP, the “shrunken log2 fold change” value was -0.239.
With RRIRLRPPRLPRPRPRPQAYPRP, the “shrunken log2 fold change” value is -0.126.
As to RRIRCRPPRLPRPRPRPIKVPRP, the “shrunken log2 fold change” value was -0.000403.
The figure for RRIRWRPPRLPRPRPRPTEKPRP is 0.103.
For the sequence RRIRDRPPRLPRPRPRPSWRPRP, the “shrunken log2 fold change” value amounted to 0.0848.
As for RRIRQRPPRLPRPRPRPMWWPRP, the “shrunken log2 fold change” value came to 0.128.
The figure for RRIRHRPPRLPRPRPRPWFWPRP is 0.0142; for RRIRYRPPRLPRPRPRPSYPPRP it is -0.217; for RRIRSRPPRLPRPRPRPWWKPRP it is -0.0475.
For the sequence RRIRGRPPRLPRPRPRPFLIPRP, the “shrunken log2 fold change” value was -0.0796.
Regarding RRIRDRPPRLPRPRPRPYKQPRP, the “shrunken log2 fold change” value is -0.0404.
Take RRIRLRPPRLPRPRPRPHYVPRP: the “shrunken log2 fold change” value was -0.169.
As for RRIRVRPPRLPRPRPRPFDQPRP, the figure is -0.365.
Regarding RRIRDRPPRLPRPRPRPNTIPRP, the “shrunken log2 fold change” value is -0.456.
The figure for RRIRARPPRLPRPRPRPRLPPRP is 0.667; for RRIRARPPRLPRPRPRPCVFPRP it is 0.39.
Regarding RRIRGRPPRLPRPRPRPEYMPRP, the “shrunken log2 fold change” value was determined as 0.409.
The figure for RRIRVRPPRLPRPRPRPRGKPRP is 0.252; for RRIRSRPPRLPRPRPRPSVTPRP it is -0.171; for RRIRMRPPRLPRPRPRPLMQPRP it is 0.29.
The figure for RRIRWRPPRLPRPRPRPRINPRP is 0.0839.
Turning to RRIRFRPPRLPRPRPRPKKCPRP, the “shrunken log2 fold change” value was found to be 0.107.
Consider RRIRQRPPRLPRPRPRPCAYPRP, for which the “shrunken log2 fold change” value is -0.0948.
Consider RRIRRRPPRLPRPRPRPCEAPRP, for which the “shrunken log2 fold change” value came out at 0.127.
As for RRIRDRPPRLPRPRPRPKAVPRP, the figure is -0.00884.
In the case of RRIRFRPPRLPRPRPRPVVTPRP, the “shrunken log2 fold change” value was -0.756.
As for RRIRIRPPRLPRPRPRPYCHPRP, the figure is -0.743; as for RRIRDRPPRLPRPRPRPFLQPRP, -0.091; as for RRIRQRPPRLPRPRPRPACHPRP, 0.105.
